Data from US20240199724A1 (THELPER, published 2024).
“And” between values parts separate entries of the source, which are not always exact repeats. Identical values can stand only once.

T1: US28 of HCMV strain TB40/E with C-terminal 6His tag, on CHO cells (human cytomegalovirus (HCMV) strain …, UniProt P69332 1-354)
T1 construct: also called TB40/E form of US28
T1 chain: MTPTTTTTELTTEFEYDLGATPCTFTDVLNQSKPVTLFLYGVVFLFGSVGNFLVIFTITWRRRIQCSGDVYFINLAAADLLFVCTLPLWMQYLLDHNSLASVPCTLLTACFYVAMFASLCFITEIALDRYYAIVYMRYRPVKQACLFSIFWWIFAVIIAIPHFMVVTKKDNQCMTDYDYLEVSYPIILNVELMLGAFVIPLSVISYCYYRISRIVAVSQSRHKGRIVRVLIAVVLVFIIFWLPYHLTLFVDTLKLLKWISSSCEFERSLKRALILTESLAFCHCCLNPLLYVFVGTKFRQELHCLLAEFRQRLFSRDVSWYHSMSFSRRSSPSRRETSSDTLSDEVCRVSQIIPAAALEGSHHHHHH

T2: mutated US28 (artificially created mutated strain) with C-terminal 6His tag, on CHO cells (human cytomegalovirus (HCMV), …, UniProt P69332 1-354)
T2 construct: also called CHO-mutated strain; mutated form of US28
T2 chain: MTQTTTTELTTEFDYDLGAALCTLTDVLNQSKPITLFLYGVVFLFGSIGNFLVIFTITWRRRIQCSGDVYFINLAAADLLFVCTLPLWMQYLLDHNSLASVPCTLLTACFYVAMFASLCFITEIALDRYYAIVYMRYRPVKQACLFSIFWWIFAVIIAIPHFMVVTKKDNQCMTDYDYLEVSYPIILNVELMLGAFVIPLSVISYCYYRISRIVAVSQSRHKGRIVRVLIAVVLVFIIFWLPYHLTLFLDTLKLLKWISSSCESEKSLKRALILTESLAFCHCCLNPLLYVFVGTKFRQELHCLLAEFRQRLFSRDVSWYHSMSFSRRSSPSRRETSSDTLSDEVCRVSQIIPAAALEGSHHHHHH

T3: US28 of HCMV strain DB with C-terminal 6His tag, on CHO-US28-A1 cells (human cytomegalovirus (HCMV) strain DB, UniProt P69332 1-354)
T3 chain: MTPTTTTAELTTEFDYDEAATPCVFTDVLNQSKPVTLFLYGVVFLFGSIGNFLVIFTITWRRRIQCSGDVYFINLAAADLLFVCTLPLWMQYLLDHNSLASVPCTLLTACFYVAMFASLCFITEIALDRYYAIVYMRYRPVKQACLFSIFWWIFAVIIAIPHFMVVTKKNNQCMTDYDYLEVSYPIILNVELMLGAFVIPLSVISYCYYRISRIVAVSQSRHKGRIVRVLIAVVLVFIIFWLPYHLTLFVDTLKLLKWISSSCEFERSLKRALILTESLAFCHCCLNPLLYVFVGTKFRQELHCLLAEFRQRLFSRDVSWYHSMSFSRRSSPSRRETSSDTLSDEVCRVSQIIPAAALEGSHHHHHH

T4: US28 of HCMV strain Ad169, on infected MRC-5 cells (human cytomegalovirus (HCMV) strain …, UniProt P69332 1-354)
T4 sequence: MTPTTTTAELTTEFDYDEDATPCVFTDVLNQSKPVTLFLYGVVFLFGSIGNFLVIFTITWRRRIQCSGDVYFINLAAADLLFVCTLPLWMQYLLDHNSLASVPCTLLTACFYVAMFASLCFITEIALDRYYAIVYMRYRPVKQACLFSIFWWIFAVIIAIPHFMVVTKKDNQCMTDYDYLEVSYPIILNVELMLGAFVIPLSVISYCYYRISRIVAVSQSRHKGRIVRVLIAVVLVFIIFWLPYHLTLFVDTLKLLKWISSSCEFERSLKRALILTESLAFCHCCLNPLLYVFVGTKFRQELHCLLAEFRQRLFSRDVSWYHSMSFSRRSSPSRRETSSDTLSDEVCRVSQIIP


Key:
[1] = target: US28 of HCMV strain DB with C-terminal 6His tag, on CHO-US28-A1 cells (human cytomegalovirus (HCMV) strain DB) (UniProt P69332); assay: flow cytometry, secondary antibody alone on CHO-US28-A1 cells
[2] = target: T1, US28 of HCMV strain TB40/E with …; assay: flow cytometry, CHO cells expressing DB or TB40/E US28 (FIG. 21D)
[3] = target: T2, mutated US28 (artificially created …); assay: flow cytometry, CHO cells expressing the mutated US28 (FIG. 21B)
[4] = target: T3, US28 of HCMV strain DB with C-terminal …; assay: flow cytometry, CHO cells expressing US28 of strain DB
[5] = target: T1, US28 of HCMV strain TB40/E with …; assay: flow cytometry, CHO cells expressing DB or TB40/E US28 (FIG. 21C)
[6] = target: T1, US28 of HCMV strain TB40/E with …; assay: flow cytometry, CHO cells expressing US28 of strain TB40/E
[7] = target: T2, mutated US28 (artificially created …); assay: flow cytometry, CHO cells expressing the mutated US28
[8] = target: T3, US28 of HCMV strain DB with C-terminal …; assay: flow cytometry, 1:50 (w/v)
[9] = target: T3, US28 of HCMV strain DB with C-terminal …; assay: flow cytometry
[10] = target: T3, US28 of HCMV strain DB with C-terminal …; assay: flow cytometry, CHO-US28 (DB) cells against control CHO cells, background subtracted
[11] = target: T4, US28 of HCMV strain Ad169, on infected …
[12] = target: Bio-Peptide-2 (human cytomegalovirus (HCMV), 4D variant); assay: ELISA (FIG. 5)

Molecule | percentage retention of binding activity between the DB and TB40/E forms of US28 [2] [%] | percent of cells bound [4] [%] | % change in absolute level of binding between the DB and TB40/E forms of US28 [5] [%] | percent of cells bound [6] [%] | percent of cells bound [7] [%] | Binding specificity comparative to the specificity displayed by VUN100 [10] [ratio] | also measured
Goat anti-mouse IgG-Alexa 488 (antibody) |  |  |  |  |  |  | percent of cells bound [1]: 1.63%
monovalent VUN100 (VHH, also called Mv VUN100; VUN100 Ab) VHH: EVQLVESGGGLVQPGGSLRLACAVSGPGLIFKFTGVAWYRRQVPGAKRGLVALITGDGATRYGDSVKGRFTVSRDIAAKRVYLEMNDLRSEDTAVYYCKTGEYWGQGTQVTVSS | ≤ 60 | 6.91 | > 35 | 4.33 | 1.41 |  | specificity (fold binding against control CHO cells) [3]: < 1 fold; binding result [7]: no binding (tested: 50 µg/ml)
US28-13-5G6-1D3 antibody (antibody, V domains shown, also called US28-13-5G6-1D3 Ab; US28-13-5G6-1D3 rAb) VH: EVKLVESGGGLVQPGGSLRLACATSGFTFTDYYMSWVRQPPGKALEWLGFIRSKANGYTTEYSASVKGRFTISRDNSQSILYLQMNTLRSEDSATYYCARDERRTAWLAYWGQGTLVTVSA VL: DVLMTQTPLSLPVSLGDQASISCRSSQSIVHSNGNTYLDWYLQKPGQSPKLLIYKVSNRFSGVPDRFSGSGSGTDFTLKISRVEAEDLGVYYCFQGSHVPTWTFGGGTKLEIKR | ~100 | 16.6 | < 10 | 18.2 | 12.9 | 1.65 | fold binding against US28 negative CHO cells [8]: 15 fold; fold binding against normal CHO cells [9]: > 21 fold; fold binding against control CHO cells [3]: ~15 fold; fold binding against uninfected cells [11]: ~16 fold
US28-14-4E4-1E8 antibody (antibody, mouse IgG1, kappa, V domains shown) VH: EVKLVESGGDLVKPGGSLKLSCAASGFTFSSYAMSWVRQTPEKRLEWVASISSGGRTYYPDSVKGRFTISRDNARNILYLQMSSLRSEDTAIYYCARGGTRHSYGNGFDYWGQGTTLTVSS VL: QIVLSQSPTIMSASPGEKVTMTCSASSSVSYMHWYQQKSGTSPKRWIYDSSKLASGVPARFSGSGSGTSYSLTISSMEAEDAATYYCQQWTSNPPITFGAGTKLELKR |  |  |  |  |  | 4.6 | 
US28-13-1H3-1A10 antibody (antibody, mouse IgG1, kappa, V domains shown, also called 14-1H3-1A10; 14-IH3-IA10) VH: EVKLVESGGVLVKPGGSLKFSCAASGFTLSSHALSWVRQTPEKRLEWVASISSRGRTYYPDSVKGRFTVSRDNARNILYLQVSSLRSEDTAMYYCTRGGTHYSYGNGFDFWGQGTTLTVSS VL: QIVLTQSPAIMSASPGEKVTMTCSVSSSVSYMHWYQQKSGTSPKRWIYDTSKLASGVPARFSGSGSGTSYSLTISTMEAEDAATYYCQQWSNNPPITFGAGTKLELKR |  |  |  |  |  | 2.29 | 
US28-13-1C10-1C10 antibody (antibody, mouse IgG1, kappa, V domains shown) VH: EVKLVESGGVLVKPGGSLKFSCAASGFTFSSHALSWVRQTPEKRLEWVASISSRGRTYYPDSVKGRFTVSRDNARNILYLQVSSLRSEDTAMYYCTRGGTHYSYGNGFDFWGQGTTLTVSS VL: QIVLTQSPAIMSASPGEKVTMTCSVSSSVSYMHWYQQKSGTSPKRWIYDTSKLASGVPARFSGSGSGTSYSLTISTMEAEDAATYYCQQWSNNPPITFGAGTKLELKR |  |  |  |  |  | 1.74 | 
US28-13-5G6-1D3 antibody (antibody) heavy: EVKLVESGGGLVQPGGSLRLACATSGFTFTDYYMSWVRQPPGKALEWLGFIRSKANGYTTEYSASVKGRFTISRDNSQSILYLQMNTLRSEDSATYYCARDERRTAWLAYWGQGTLVTVSAAKTTPPSVYPLAPGSAAQTNSMVTLGCLVKGYFPEPVTVTWNSGSLSSGVHTFPAVLQSDLYTLSSSVTVPSSTWPSETVTCNVAHPASSTKVDKKIVPRDCGCKPCICTVPEVSSVFIFPPKPKDVLTITLTPKVTCVVVDISKDDPEVQFSWFVDDVEVHTAQTQPREEQFNSTFRSVSELPIMHQDWLNGKEFKCRVNSAAFPAPIEKTISKTKGRPKAPQVYTIPPPKEQMAKDKVSLTCMITDFFPEDITVEWQWNGQPAENYKNTQPIMDTDGSYFIYSKLNVQKSNWEAGNTFTCSVLHEGLHNHHTEKSLSHSPGK light: DVLMTQTPLSLPVSLGDQASISCRSSQSIVHSNGNTYLDWYLQKPGQSPKLLIYKVSNRFSGVPDRFSGSGSGTDFTLKISRVEAEDLGVYYCFQGSHVPTWTFGGGTKLEIKRADAAPTVSIFPPSSEQLTSGGASVVCFLNNFYPKDINVKWKIDGSERQNGVLNSWTDQDSKDSTYSMSSTLTLTKDEYERHNSYTCEATHKTSTSPIVKSFNRNEC |  |  |  |  |  |  | fold binding against BSA control [12]: 27 fold and 28 fold
bivalent VUN100 (VHH, also called VUN100b; BvVUN100) EVQLVESGGGLVQPGGSLRLACAVSGPGLIFKFTGVAWYRRQVPGAKRGLVALITGDGATRYGDSVKGRFTVSRDIAAKRVYLEMNDLRSEDTAVYYCKTGEYWGQGTQVTVSSGGGGSGGGGSGGGGSGGGGSGGGGSGGGGSEVQLVESGGGLVQPGGSLRLACAVSGPGLIFKFTGVAWYRRQVPGAKRGLVALITGDGATRYGDSVKGRFTVSRDIAAKRVYLEMNDLRSEDTAVYYCKTGEYWGQGTQVTVSS | ≤ 60 | 9.24 | > 40 | 5.2 | 2.58 |  | fold binding against control CHO cells [3]: 2.43 fold
